Source: paper PMC12314576, “The Actin‐Binding Prolyl‐Isomerase Par17 Sustains Its Substrate Selectivity by Interdomain Allostery” (Proteins, 2025)
Starred links: 1 amine or outer side, 2 acyl side, 3 side chain; linkers in the order of their positions; H or OH if unused. *: point of attachment. pNA = O=[N+]([O-])c1ccc(N*)cc1; Suc = O=C(CCC(=O)[*:2])[*:1]

B1: Suc-Ala-Arg-Pro-Phe-pNA (peptide)
peptide: Suc-ARPF-pNA
SMILES: C[C@H](NC(=O)CCC(=O)O)C(=O)N[C@@H](CCCNC(=N)N)C(=O)N1CCC[C@H]1C(=O)N[C@@H](Cc1ccccc1)C(=O)Nc1ccc([N+](=O)[O-])cc1
B2: Suc-Ala-Lys-Pro-Phe-pNA (peptide)
peptide: Suc-AKPF-pNA
SMILES: C[C@H](NC(=O)CCC(=O)O)C(=O)N[C@@H](CCCCN)C(=O)N1CCC[C@H]1C(=O)N[C@@H](Cc1ccccc1)C(=O)Nc1ccc([N+](=O)[O-])cc1

Target: Parvulin 17 (human) (UniProt Q9Y237)
Experiment: NMR titration; substrate peptides added stepwise to 15N-labelled parvulin (300 μM, up to 3 mM peptide, 1:10); BEST-TROSY-HSQC at 20°C, 50 mM KPi buffer pH 6.7; microscopic (residue-specific) KD fitted with a 1:1 binding model

Sequence of Parvulin 17 (human) (Q9Y237 other isoform, or with tags, fused parts or gaps): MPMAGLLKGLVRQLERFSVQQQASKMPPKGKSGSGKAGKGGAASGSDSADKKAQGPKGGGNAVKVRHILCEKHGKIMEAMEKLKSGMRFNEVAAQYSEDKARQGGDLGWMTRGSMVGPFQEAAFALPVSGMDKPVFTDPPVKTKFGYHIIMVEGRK

| Binder | microscopic (residue-specific) KD, V116 |
| --- | --- |
| B1 | 17 mM |
| B2 | 24 mM |
